Measured values reported in US20090270325A1.

Experiments:
[1] = target: human GHR on human 293 cells stably expressing the human GHR (human) (UniProt P10912)
[2] = target: human GHR on human 293 cells stably expressing the human GHR (human) (UniProt P10912); remark: listed apart in the source

Substance: hGH-GHR Chimera (75 kDa chimera) (from UniProt P01241)
- concentration for the maximal response, Stat 5 luciferase-reporter assay [1]: 50 to 250 nM
- GH-specific luciferase reporter assay (bioactivity) [2]: 10%
